Data set [1] deals with GST-DEK PBD2-Mut2 (Homo sapiens). Nature of the data set: EMSA (agarose). To be noted: only slightly reduced; indistinguishable from WT at higher molar ratios; 20 mM Hepes-KOH pH 7.6, 100 mM NaCl, 10 mM NaHSO3, 1 mM EDTA, 1 ug/ml BSA; 30 ul, 1 h at 37 C; 0.6% agarose gel in TBE. PAR overlay assays (poly(ADP-ribose) …); scale: DEK:DNA molar ratio at first detectable shift.
The test system of data set [2] is GST-DEK WT (Homo sapiens). The data set is described as follows: EMSA (agarose). To be noted: 20 mM Hepes-KOH pH 7.6, 100 mM NaCl, 10 mM NaHSO3, 1 mM EDTA, 1 ug/ml BSA; 30 ul, 1 h at 37 C; 0.6% agarose gel in TBE. PAR overlay assays (poly(ADP-ribose) …); scale: DEK:DNA molar ratio at first detectable shift.

With plasmid DNA (unnamed), the figures for the binding signal in data set [1] and in data set [2] were 112 and 84, respectively.

For the origin of these results see article PMC6692024.
